For this test, the target named is GST-tagged recombinant phosphorylated human ERK2 (human) (UniProt P28482).
UniProt P28482, sequence (P28482 whole entry): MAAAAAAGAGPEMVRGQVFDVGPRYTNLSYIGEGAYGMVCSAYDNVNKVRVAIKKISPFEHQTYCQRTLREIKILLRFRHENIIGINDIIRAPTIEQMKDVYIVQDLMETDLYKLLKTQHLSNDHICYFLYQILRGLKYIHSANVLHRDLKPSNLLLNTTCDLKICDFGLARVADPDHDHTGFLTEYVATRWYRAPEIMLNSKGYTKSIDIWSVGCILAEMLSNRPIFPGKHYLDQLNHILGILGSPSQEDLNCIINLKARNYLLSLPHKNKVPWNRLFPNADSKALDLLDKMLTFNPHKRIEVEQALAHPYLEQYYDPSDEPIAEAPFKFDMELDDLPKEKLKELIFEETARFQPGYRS

B1: GST-S147P, glutathione-S-transferase-tagged full-length human DUSP5 serine 147 proline mutant (enzyme)
chain: MKVTSLDGRQLRKMLRKEAAARCVVLDCRPYLAFAASNVRGSLNVNLNSVVLRRARGGAVSARYVLPDEAARARLLQEGGGGVAAVVVLDQGSRHWQKLREESAARVVLTSLLACLPAGPRVYFLKGGYETFYSEYPECCVDVKPIPQEKIESERALISQCGKPVVNVSYRPAYDQGGPVEILPFLYLGSAYHASKCEFLANLHITALLNVSRRTSEACATHLHYKWIPVEDSHTADISSHFQEAIDFIDCVREKGGKVLVHCEAGISRSPTICMAYLMKTKQFRLKEAFDYIKQRRSMVSPNFGFMGQLLQYESEILPSTPNPQPPSCQGEAAGSSLIGHLQTLSPDMQGAYCTFPASVLAPVPTHSTVSELSRSPVATATSC
With B1, the dephosphorylation of pERK2 by western blot, dose curve 0.1-10 nM enzyme, 15 min; concentration at which the pERK band is completely absent (0.5 nM for GST-DUSP5) amounted to 5 nM.

The record behind these values is publication PMC4299175.
